Patent US20090118184A1 (UNIVERSITY OF ROCHESTER, published 2009)

Columns and labels:
Test in all cases: cell-based or functional assay
[1] = biological target: T1, factor VIIIa A1/A3C1C2 dimer, H281A (human, UniProt P00451 20-391; P00451 1709-2351)
T1 chain 1: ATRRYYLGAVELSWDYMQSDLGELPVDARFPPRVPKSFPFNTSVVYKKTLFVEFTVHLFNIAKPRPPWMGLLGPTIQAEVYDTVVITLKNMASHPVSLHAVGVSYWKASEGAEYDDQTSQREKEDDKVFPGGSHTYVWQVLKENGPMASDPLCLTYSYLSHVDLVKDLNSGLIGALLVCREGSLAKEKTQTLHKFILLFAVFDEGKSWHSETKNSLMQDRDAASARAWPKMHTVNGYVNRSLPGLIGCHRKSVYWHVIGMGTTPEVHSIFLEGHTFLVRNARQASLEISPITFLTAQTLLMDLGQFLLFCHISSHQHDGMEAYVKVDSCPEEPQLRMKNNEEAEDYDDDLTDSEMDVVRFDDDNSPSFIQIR
T1 chain 2: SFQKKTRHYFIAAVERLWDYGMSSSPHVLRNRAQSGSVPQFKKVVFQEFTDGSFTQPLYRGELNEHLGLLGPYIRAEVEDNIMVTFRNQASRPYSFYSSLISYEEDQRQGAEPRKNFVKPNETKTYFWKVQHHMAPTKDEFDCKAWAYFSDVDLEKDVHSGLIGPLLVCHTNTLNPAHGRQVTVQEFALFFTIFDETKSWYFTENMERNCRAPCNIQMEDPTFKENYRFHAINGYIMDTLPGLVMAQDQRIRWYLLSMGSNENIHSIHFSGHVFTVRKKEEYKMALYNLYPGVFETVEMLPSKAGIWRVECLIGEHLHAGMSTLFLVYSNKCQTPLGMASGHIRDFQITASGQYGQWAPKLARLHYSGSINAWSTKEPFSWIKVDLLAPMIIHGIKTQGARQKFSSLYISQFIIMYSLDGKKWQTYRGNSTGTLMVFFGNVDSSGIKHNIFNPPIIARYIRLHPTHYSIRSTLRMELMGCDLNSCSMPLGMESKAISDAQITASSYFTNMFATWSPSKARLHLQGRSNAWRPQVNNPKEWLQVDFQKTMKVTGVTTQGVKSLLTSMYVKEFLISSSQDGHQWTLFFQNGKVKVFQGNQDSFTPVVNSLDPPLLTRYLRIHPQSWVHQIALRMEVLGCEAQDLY

[2] = biological target: T2, factor VIIIa A1/A3C1C2 dimer, Q1820A (human, UniProt P00451 20-391; P00451 1709-2351)
T2 sequence 1: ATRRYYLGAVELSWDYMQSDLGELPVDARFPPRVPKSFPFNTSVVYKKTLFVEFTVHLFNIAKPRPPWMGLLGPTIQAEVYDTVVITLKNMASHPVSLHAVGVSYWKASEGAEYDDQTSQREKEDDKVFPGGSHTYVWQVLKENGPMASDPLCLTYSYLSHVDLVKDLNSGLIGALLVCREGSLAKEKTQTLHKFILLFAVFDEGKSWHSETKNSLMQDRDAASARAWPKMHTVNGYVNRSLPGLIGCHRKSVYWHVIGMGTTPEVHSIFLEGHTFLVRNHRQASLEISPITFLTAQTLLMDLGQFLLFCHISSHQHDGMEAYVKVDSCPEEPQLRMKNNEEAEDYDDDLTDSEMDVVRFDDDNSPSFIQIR
T2 sequence 2: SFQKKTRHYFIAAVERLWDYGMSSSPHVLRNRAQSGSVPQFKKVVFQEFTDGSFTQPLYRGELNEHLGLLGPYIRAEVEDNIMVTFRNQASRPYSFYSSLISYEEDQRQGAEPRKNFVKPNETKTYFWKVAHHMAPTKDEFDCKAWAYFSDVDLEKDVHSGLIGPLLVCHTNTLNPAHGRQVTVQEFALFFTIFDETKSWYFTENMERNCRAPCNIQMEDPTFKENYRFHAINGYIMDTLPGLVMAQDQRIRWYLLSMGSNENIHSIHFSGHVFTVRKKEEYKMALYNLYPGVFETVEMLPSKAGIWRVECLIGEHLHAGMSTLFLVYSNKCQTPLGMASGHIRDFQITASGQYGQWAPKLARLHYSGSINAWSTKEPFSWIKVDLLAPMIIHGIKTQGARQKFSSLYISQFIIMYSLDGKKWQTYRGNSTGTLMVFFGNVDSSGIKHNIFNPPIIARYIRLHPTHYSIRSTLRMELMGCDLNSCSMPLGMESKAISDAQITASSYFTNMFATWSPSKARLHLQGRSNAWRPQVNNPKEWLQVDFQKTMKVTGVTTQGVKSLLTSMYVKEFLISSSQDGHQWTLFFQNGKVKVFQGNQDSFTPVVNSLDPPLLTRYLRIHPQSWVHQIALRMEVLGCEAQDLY

[3] = biological target: T3, factor VIIIa A1/A3C1C2 dimer, H317A (human, UniProt P00451 20-391; P00451 1709-2351)
T3 chain 1: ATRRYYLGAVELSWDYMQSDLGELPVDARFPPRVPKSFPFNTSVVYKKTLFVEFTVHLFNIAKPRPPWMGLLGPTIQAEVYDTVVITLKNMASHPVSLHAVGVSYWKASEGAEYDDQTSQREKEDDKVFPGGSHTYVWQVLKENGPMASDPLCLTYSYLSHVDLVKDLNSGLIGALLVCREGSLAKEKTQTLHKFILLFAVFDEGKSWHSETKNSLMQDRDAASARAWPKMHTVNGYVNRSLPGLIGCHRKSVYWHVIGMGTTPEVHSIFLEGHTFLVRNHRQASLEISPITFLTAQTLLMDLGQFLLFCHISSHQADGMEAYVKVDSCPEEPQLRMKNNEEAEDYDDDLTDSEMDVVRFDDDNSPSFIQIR
T3 chain 2: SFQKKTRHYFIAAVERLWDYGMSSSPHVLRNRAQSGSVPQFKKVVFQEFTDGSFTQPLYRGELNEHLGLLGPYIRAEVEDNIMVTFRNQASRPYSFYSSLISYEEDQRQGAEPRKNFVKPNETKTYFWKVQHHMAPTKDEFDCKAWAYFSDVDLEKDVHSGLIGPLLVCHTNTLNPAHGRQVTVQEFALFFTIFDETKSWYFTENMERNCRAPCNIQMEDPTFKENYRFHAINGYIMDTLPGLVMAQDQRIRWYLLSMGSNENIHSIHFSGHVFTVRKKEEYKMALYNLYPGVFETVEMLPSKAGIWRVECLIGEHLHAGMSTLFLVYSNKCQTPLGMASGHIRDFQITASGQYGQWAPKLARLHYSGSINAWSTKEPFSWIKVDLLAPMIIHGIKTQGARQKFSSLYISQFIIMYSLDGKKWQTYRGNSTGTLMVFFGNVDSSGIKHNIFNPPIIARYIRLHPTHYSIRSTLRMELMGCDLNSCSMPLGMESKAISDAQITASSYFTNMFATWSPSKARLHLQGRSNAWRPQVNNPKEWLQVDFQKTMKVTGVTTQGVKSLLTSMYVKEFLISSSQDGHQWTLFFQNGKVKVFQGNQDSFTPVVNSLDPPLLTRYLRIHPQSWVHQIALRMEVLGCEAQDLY

[4] = biological target: T4, factor VIIIa A1/A3C1C2 dimer, E287A (human, UniProt P00451 20-391; P00451 1709-2351)
T4 chain 1: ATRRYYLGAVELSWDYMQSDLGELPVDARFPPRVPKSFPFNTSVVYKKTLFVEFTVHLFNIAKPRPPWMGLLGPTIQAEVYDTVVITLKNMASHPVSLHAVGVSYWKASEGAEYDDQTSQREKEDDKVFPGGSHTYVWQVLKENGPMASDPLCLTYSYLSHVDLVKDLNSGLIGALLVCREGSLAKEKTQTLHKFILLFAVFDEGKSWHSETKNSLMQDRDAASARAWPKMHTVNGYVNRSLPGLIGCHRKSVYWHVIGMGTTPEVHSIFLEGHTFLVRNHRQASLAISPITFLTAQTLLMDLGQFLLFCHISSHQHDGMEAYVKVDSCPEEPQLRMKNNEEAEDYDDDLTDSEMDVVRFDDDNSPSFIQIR
T4 chain 2: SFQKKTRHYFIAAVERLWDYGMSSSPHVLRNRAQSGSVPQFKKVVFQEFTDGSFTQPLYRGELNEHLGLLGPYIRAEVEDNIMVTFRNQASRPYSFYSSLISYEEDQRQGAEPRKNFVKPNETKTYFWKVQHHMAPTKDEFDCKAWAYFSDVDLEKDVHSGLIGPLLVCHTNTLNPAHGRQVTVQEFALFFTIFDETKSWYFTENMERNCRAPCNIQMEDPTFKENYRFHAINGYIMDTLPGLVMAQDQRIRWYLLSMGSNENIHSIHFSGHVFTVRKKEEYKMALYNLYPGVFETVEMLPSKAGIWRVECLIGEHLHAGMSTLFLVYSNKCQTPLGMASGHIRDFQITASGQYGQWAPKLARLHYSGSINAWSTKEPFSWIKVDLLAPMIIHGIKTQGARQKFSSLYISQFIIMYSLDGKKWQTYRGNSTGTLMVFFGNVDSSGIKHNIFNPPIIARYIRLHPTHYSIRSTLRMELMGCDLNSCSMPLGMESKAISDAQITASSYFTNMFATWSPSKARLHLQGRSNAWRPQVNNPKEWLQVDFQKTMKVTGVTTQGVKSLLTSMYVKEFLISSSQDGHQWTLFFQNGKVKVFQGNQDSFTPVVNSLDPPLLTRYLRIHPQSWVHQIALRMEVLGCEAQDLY

Factor VIIIa decay rate relative to wild type, FIXa (+) [1]: 3.99 relative to wild type
Factor VIIIa decay rate, FIXa (+) [1]: 0.045 min⁻¹
Factor VIIIa decay rate relative to wild type, FIXa (+) [2]: 1.01 relative to wild type
Factor VIIIa decay rate, FIXa (+) [2]: 0.0114 min⁻¹
Factor VIIIa decay rate relative to wild type, FIXa (+) [3]: 1.28 relative to wild type
Factor VIIIa decay rate, FIXa (+) [3]: 0.0145 min⁻¹
Factor VIIIa decay rate relative to wild type, FIXa (+) [4]: 0.78 relative to wild type
Factor VIIIa decay rate, FIXa (+) [4]: 0.0088 min⁻¹
B1: factor VIIIa A2 subunit, wild type (other)
chain: SVAKKHPKTWVHYIAAEEEDWDYAPLVLAPDDRSYKSQYLNNGPQRIGRKYKKVRFMAYTDETFKTREAIQHESGILGPLLYGEVGDTLLIIFKNQASRPYNIYPHGITDVRPLYSRRLPKGVKHLKDFPILPGEIFKYKWTVTVEDGPTKSDPRCLTRYYSSFVNMERDLASGLIGPLLICYKESVDQRGNQIMSDKRNVILFSVFDENRSWYLTENIQRFLPNPAGVQLEDPEFQASNIMHSINGYVFDSLQLSVCLHEVAYWYILSIGAQTDFLSVFFSGYTFKHKMVYEDTLTLFPFSGETVFMSMENPGLWILGCHNSDFRNRGMTALLKVSSCDKNTGDYYEDSYEDISAYLLSKNNAIEPR
